# Test results reported in US20260201069A1, “ANTIBODIES THAT SPECIFICALLY BIND MODIFIED OLIGONUCLEOTIDES” (Hoffmann-La Roche Inc., priority 2024, published 2026).
# Changes are numbered by the printed parent chain.
# B1: 1.9.21 (antibody, V domains shown)
# VH: QVQLQQSGAELVRPGTSVKVSCKASGYAFTNYLIEWIKQRPGQGLEWIGVINPGSGGTNYNEKFRVKATLTADKSSSTAYMQLSSLTSDDSAVYFCARGGGYYWGQGTLVTVSA
# VL: DIVMTQAAPSVPVTPGESVSISCRSSKSLLHSNGNTYLFWFLQRPGQSPQVLIYRMSNLASGVPDRFSGSGSGTAFTLRISRVEAEDVGVYYCMQHLEYPYTFGSGTRLEIK
# B2: 1.7.15 (antibody, V domains shown)
# VH: QVQLKQSGPSFVQPSQSLSITCTVSGFSLTTYGVHWVRQSPGKGLEWLGVIWRSGGTDYNAAFMSRLSITKDNSKSQVFFKMNSLQTDDTAIYYCTNLYYWGQGTTLTVSS
# VL: DIVMTQATFSNPVTLGTSVSISCRSSKSLLRSNGITYLYWYLQKPGQSPQLLIYQMSNLASGVPDRFSSSGSGTDFTLRISRVEAEDVGVYYCGQNLELPYTFGSGTKVEIK
# B3: mAb 5392: anti-LNA antibody produced by clone 1.7.15 in the bivalent standard Y-shaped IgG format (antibody, V domains shown)
# VH: B2 VH
# VL: B2 VL
# B4: mAb 5391: anti-LNA antibody produced by clone 1.2.8 in the bivalent standard Y-shaped IgG format (antibody, V domains shown)
# VH: QIQLRESGPGLVAPSQSLSITCTVSGFSLTNYGVHWVRQPPGKGLEWLGVIWAGGSTIYNSALMSRLSISRDNSKSQVFLEMNSLQTYDTAMYYCARDRPFDGFFFSYWGQGTALTVSS
# VL: DVLMTQTPLSLPVSLGDQASISCRSSQAIVHRSGNTFLEWYLQKPGQSPKLLIYKVSNRFSGVPDRFSGSGSGTDFTLKINRVEAEDLGVYYCFQGSHVPYTFGSGTKLEIK
# B5: 1.4.10 (antibody, listed as Mus musculus, V domains shown)
# VH: B4 VH with T30V, V34I, S76N
# VL: B4 VL
# B6: 1.2.8 (antibody, listed as Mus musculus, V domains shown)
# VH: B4 VH
# VL: B4 VL
# How the values were obtained:
# [1] = system: LNA sequence (nucleotides/sequence of bases); assay: Epitope mapping solid phase immunoassay (ELISA); assay type: binding
# Text: The epitope was mapped using immunoassays with capture molecules containing the following binding epitopes as well as combinations thereof: • LNA (2′-0,4-C-methylene), • phosphorothioate in the NA backbone, • nucleotides/sequence of bases, • DNA, • GalNAc-C6-modification.
# The results of the epitope characterization of the antibodies according to the current invention by solid phase immunoassay (ELISA) using different biotinylated LNA, PS-backbone or DNA-containing NA-oligonucleotides as outlined above are shown in FIGS. 1 to 5.
# The selected monoclonal LNA-specific Abs were further characterized for binding characteristics and epitope mapped by immunoassay using capture molecules containing the following binding epitopes and combinations thereof • LNA (2′-O.4-C-methylene) • phosphorothioate in the NA backbone • nucleotides/sequence of bases • DNA • GalNAc-C6-modification
# The results of the antibody characterization by solid phase immunoassay (ELISA) using different biotinylated LNA, PS-backbone or DNA-containing NA-oligonucleotides are shown in FIGS. 1 to 5.
# DNA4b-Bi = assay: Hybridoma antibody specificity immunoassay; assay type: binding; details: hybridoma antibody subclones, Table 1-4
# Text: (§1) From two selected animals, spleen cells were fused to Ag8 cells to generate antibody-producing hybridomas using state-of-the-art hybridoma cell technology. After cell fusion, hybridomas were screened for specific reactivity with LNA-containing ASOs using DNA-containing ASOs for specificity evaluation.
# (§2) In more detail, from two cell fusions, 3840 initial hybridoma clones resulting in 33 primary hybridoma clones were obtained. Thereof, 11 were selected for further characterization of binding characterization by biomolecular interaction analysis (kinetic and thermodynamic surface plasmon resonance). Five primary hybridoma clones were further processed by subcloning to generate monoclonal hybridoma cell culture clones.
# as §1, with “From immunoreactive mice (2 animals selected),” for “From two selected animals,”, “antibody-producing fusion cells” for “antibody-producing hybridomas”
# as §2, with “From two” for “In more detail, from two”, “binding properties” for “binding characterization”, “resonance). Finally, 5” for “resonance). Five”, “culture clones (Tables 1-3 and 1-4).” for “culture clones.”
# LNA2-Bi = assay: Hybridoma antibody specificity immunoassay; assay type: binding; details: hybridoma antibody subclones, Table 1-4
# Text: as §1, §2
# as §1, with “From immunoreactive mice (2 animals selected),” for “From two selected animals,”, “antibody-producing fusion cells” for “antibody-producing hybridomas”
# as §2, with “From two” for “In more detail, from two”, “binding properties” for “binding characterization”, “resonance). Finally, 5” for “resonance). Five”, “culture clones (Tables 1-3 and 1-4).” for “culture clones.”
# LNA4b-Bi = assay: Hybridoma antibody specificity immunoassay; assay type: binding; details: hybridoma antibody subclones, Table 1-4
# Text: as §1, §2
# as §1, with “From immunoreactive mice (2 animals selected),” for “From two selected animals,”, “antibody-producing fusion cells” for “antibody-producing hybridomas”
# as §2, with “From two” for “In more detail, from two”, “binding properties” for “binding characterization”, “resonance). Finally, 5” for “resonance). Five”, “culture clones (Tables 1-3 and 1-4).” for “culture clones.”
# DNA1-Bi = assay: Hybridoma antibody specificity immunoassay; assay type: binding; details: hybridoma antibody subclones, Table 1-4
# Text: as §1, §2
# as §1, with “From immunoreactive mice (2 animals selected),” for “From two selected animals,”, “antibody-producing fusion cells” for “antibody-producing hybridomas”
# as §2, with “From two” for “In more detail, from two”, “binding properties” for “binding characterization”, “resonance). Finally, 5” for “resonance). Five”, “culture clones (Tables 1-3 and 1-4).” for “culture clones.”
# LNA1-Bi = assay: Hybridoma antibody specificity immunoassay; assay type: binding; details: hybridoma antibody subclones, Table 1-4
# Text: as §1, §2
# as §1, with “From immunoreactive mice (2 animals selected),” for “From two selected animals,”, “antibody-producing fusion cells” for “antibody-producing hybridomas”
# as §2, with “From two” for “In more detail, from two”, “binding properties” for “binding characterization”, “resonance). Finally, 5” for “resonance). Five”, “culture clones (Tables 1-3 and 1-4).” for “culture clones.”
# DNA2-Bi = assay: Hybridoma antibody specificity immunoassay; assay type: binding; details: hybridoma antibody subclones, Table 1-4
# Text: as §1, §2
# as §1, with “From immunoreactive mice (2 animals selected),” for “From two selected animals,”, “antibody-producing fusion cells” for “antibody-producing hybridomas”
# as §2, with “From two” for “In more detail, from two”, “binding properties” for “binding characterization”, “resonance). Finally, 5” for “resonance). Five”, “culture clones (Tables 1-3 and 1-4).” for “culture clones.”
# ASO 827 = assay: SPR (BIAcore) binding kinetics and affinity; details: analyte ASO 827; bivalent IgG format; 25° C.
# Procedure: (§3) In more detail, LNA binding of the antibodies according to the current invention was characterized by surface plasmon resonance (SPR) using a BIAcore instrument with a HEPES-based running and dilution buffer at 25° C. About 100-200 resonance units (RU) of an anti-LNA antibody with an Fc-region of the human IgG1 subclass and the mutations P329G, L234A and L235A (according to Kabat EU index; human IgG Fc-PGLALA) or an anti-LNA Fab fragment with human CL and CH1 (kappa, IgG1 isotype), respectively, was captured on the surface of a Series S Sensor Chip CM3 derivatized by standard amine coupling with either a mouse anti-human IgG Fc-PGLALA antibody or a goat anti-human F(ab′2) antibody with final total surface densities of approximately 5000 RU. Different LNA-modified ASOs were passed over the derivatized SPR chip surface by injecting the respective solutions in a 1:3 dilution series up to a final concentration of 1000 nM. Association was monitored for 3 min and dissociation for 5 min at a flow rate of 30 μl/min each. Bulk refractive index differences were corrected by subtracting blank injections and by subtracting the response obtained from the reference flow cell without captured antibody. Curve fitting was performed using the 1:1 Langmuir binding model within the BIAcore evaluation software.
# (§4) To assess the binding specificities and affinities of the LNA-binding antibodies according to the current invention, surface plasmon resonance was used as described, e.g., in WO 2020/141117 and WO 2022/175217.
# (§5) To assess the specificities and affinities of LNA-binding antibodies, surface plasmon resonance was done as described in WO 2020/141117 and WO 2022/175217. ASO binding was investigated by surface plasmon resonance (SPR) using a BIAcore T200 instrument (Cytiva). As a running and dilution buffer, HEPES buffered saline (HBS) containing 0.05% PS20 was used, the temperature was set to 25° C. For capturing anti-LNA Fabs or complete anti-LNA antibodies to a Series S Sensor Chip CM3 (Cytiva), either a mouse anti-human IgG antibody (Roche Diagnostics GmbH) or a goat anti-human F(ab′2) antibody (Jackson ImmunoResearch) was immobilized using standard amine coupling chemistry with final total surface densities of approximately 5000 resonance units (RU). The anti-LNA antibodies were captured to the surface by an injection for 30 sec., leading to response levels of approx. 100-200 RU. Different ASO molecules were injected in a 1:3 dilution series up to 1000 nM. Association was monitored for 3 min. and dissociation for 5 min. at a flow rate of 30 μl/min each. Subsequently, the surface was regenerated by injecting 10 mM NaOH (anti-human IgG antibody surface) or 10 mM Glycine pH 1.7 (anti-human IgG F(ab′2) antibody surface) for 60 sec. Bulk refractive index differences were corrected by subtracting blank injections and by subtracting the response obtained from the reference flow cell without captured antibody. Curve fitting was performed using the 1:1 Langmuir binding model within the BIAcore evaluation software.
# [2] = system: fusion 2489 (antibody-ASO 918 conjugate); assay: SPR (BIAcore) binding kinetics and affinity; details: analyte fusion 2489; bivalent IgG format; 25° C.
# Procedure: as §3, §4, §5
# ASO 042 = assay: SPR (BIAcore) binding kinetics and affinity; details: analyte ASO 042; bivalent IgG format; 25° C.
# Procedure: as §3, §4, §5
# ASO 297 = assay: SPR (BIAcore) binding kinetics and affinity; details: analyte ASO 297, bivalent IgG format, 25° C.
# Procedure: as §3, §4, §5
# [3] = system: fusion 2899 (antibody-ASO 918 conjugate); assay: SPR (BIAcore) binding kinetics and affinity; details: analyte fusion 2899; bivalent IgG format; 25° C.
# Procedure: as §3, §4, §5
# ASO 420 = assay: SPR (BIAcore) binding kinetics and affinity; details: analyte ASO 420, bivalent IgG format, 25° C.
# Procedure: as §3, §4, §5
# [4] = system: LNA-modified ASOs and antibody-ASO conjugates; assay: SPR binding; details: summary in words
# Procedure: as §3
# Further analyses of the pan anti-LNA antibody according to the invention produced by clone 1.9.21 a trivalent, bispecific format was used. This trivalent, bispecific format comprises an IgG1 Fc-region (with knobs-into-holes-cys1 mutations) to which at one of the N-termini of the Fc-region a germline Fab (DP47; SEQ ID NO: 137 and 138) has been fused and at both of the C-termini of the Fc-region each one anti-LNA Fab (fab 0699) according to the current invention produced by clone 1.9.21 has been fused (fusion 1861). […]
# To assess the specificities and affinities of LNA-binding antibodies, surface plasmon resonance was done as described in WO 2020/141117 and WO 2022/175217. […] Association was monitored for 3 min. and dissociation for 5 min. at a flow rate of 30 μl/min each. […]
Molecule,LNA sequence specificity [1],Signal DNA4b-Bi (DNA4b-Bi),Signal LNA2-Bi (LNA2-Bi),Signal LNA4b-Bi (LNA4b-Bi),Signal DNA1-Bi (DNA1-Bi),Signal LNA1-Bi (LNA1-Bi),Signal DNA2-Bi (DNA2-Bi),K (ASO 827),K [2],K (ASO 042),Koff (ASO 297; oos = out of specification),K [3],Kd (ASO 420; read-out: K),binding to the tested analytes (ASOs and antibody-ASO conjugates) [4],K (ASO 297),K (ASO 420)
B1,LNA sequence specific binders,0.110 OD,>4.000 OD,3.556 OD,0.064 OD,>4.000 OD,0.039 OD,,,,,,,,,
B2,LNA sequence specific binders,0.035 OD,2.815 OD,>4.000 OD,0.060 OD,2.195 OD,0.150 OD,,,,,,,,,
B3,,,,,,,,no binding,no/low binding,no binding,oos,no/low binding,198 nM,"binds to some of the ASOs, while showing no or very low binding to other ASOs",,
B4,,,,,,,,no binding,no/low binding,no binding,,no/low binding,,no to very low binding to all of the analytes tested,no binding,no binding
B5,,0.038 OD,3.154 OD,2.977 OD,0.084 OD,3.398 OD,0.049 OD,,,,,,,,,
B6,,0.034 OD,2.012 OD,1.916 OD,0.041 OD,2.330 OD,0.037 OD,,,,,,,,,
